This note sets out measurements from article PMC5959011.

The target of test [1] is smallest capsid protein (SCP) VP26 (herpes simplex virus type 1 (HSV-1), strain KOS) (UniProt P10219). Nature of the test: cryo-EM structure.
The target in test [2] is tegument protein pUL25 (herpes simplex virus type 1 (HSV-1), strain KOS) (UniProt P10209). Briefly: cryo-EM structure.

“smallest capsid protein (SCP) VP26 (from UniProt P10219 1-112) (natural protein)”: the stoichiometry N in test [1] was found to be 6.
On to “tegument protein pUL25 (from UniProt P10209 1-580) (natural protein)”, for which the stoichiometry N in test [2] stood at 2.

Usually stoichiometry N stands for a count of units in the complex or per binding partner.
